According to patent US20240018184A1:

How the values were obtained:
[1] = molecular target: human polyclonal IgG (Gammanorm) (human); assay: pH gradient elution (citrate pH 6-3) from column
[2] = molecular target: mAb (sample of Example 11, 4.28 mg/ml); assay: load volume to 35% breakthrough, PCC columns, CIP with 2 M NaOH
[3] = molecular target: Cy5-hIgG (Cy5-labelled human immunoglobulin G) (human); assay: confocal microscopy of beads with Cy5-hIgG, after 8 h in 2 M NaOH
[4] = molecular target: Cy5-hIgG (Cy5-labelled human immunoglobulin G) (human); assay: confocal microscopy of beads with Cy5-hIgG, after 16 h in 1 M NaOH

Elution pH (peak 1) [1] [pH] | Elution pH (peak 2) [1] [pH] | original capacity remaining [2] [%] | Ig-binding capacity lost [3] [%] | binding capacity lost [4] [%] | Substance
4.24 | 3.81 |  |  |  | Zvar(Q9A, N11E, Q40V, A42K, N43A, L44I)6 (designed binder)
 |  | < 80 |  |  | MabSelect SuRe (ligand of the commercial reference matrix)
4.01 | 3.7 |  | 50 | 50 | MabSelect SuRe LX (ligand of the commercial reference matrix)
